Data as given in US20200283515A1 (HUMANITAS MIRASOLE S P A, published 2020).
Ends that are not written are not given here. * marks the point of attachment. Biotin = O=C1N[C@H]2[C@H](CS[C@H]2CCCCC(=O)*)N1; Ahx = NCCCCCC(=O)O

Experiments:
[1] = target: T1, biot-VSIPPRNLGY peptide (biot-Ahx-VSIPPRNLGY) (human); experiment: indirect ELISA, peptide captured on NeutrAvidin, 1G5.3 at 10 ng/ml (FIG. 20A)
T1 construct: Synthetic; captured on NeutrAvidin-coated plates; also called unique MSF decapeptide; C-terminal unique tail of MSF
T1 peptide: {Biotin-Ahx}-VSIPPRNLGY
Experimental: FIG. 20. Indirect ELISA analysis of the interaction of mAb7.1 and 1G5.3 with biot-[…] and rhMSF. A) The biot-[…] peptide (SEQ ID NO:11) (spanning the aa 648-657 sequence at the C-terminus of human MSF) was captured onto Maxisorb plates that had been coated with NeutrAvidin. […] B) Maxisorb plates were coated with rhMSF, and incubated with mAb7.1 hybridoma cultures or purified 1G5.3. […] Wells containing NeutrAvidin (NeutrAvidin in A) or PBS−/− (PBS in B) only were taken as negative controls. Shown are plots from one out of two independent experiments, each performed in duplicate.
Nunc Maxisorb immunoplates were coated (0/N at 4° C.) with NeutrAvidin protein (1 μg/well; Thermo Scientific, Rockford, Ill., USA; Cat No: 31000) in PBS−/−. Biot-[…] (SEQ ID NO:11) peptide (100 μl/well, 10 μg/ml in PBS+/+ containing 0.05% (v/v) Tween 20, washing buffer) was added and captured on the NeutrAvidin layer for 1 h at room temperature; this allowed N→C orientation of the peptide, thus mimicking its topological organization in the context of the MSF protein [19]. Uncoated sites were blocked by incubation for 2 h at room temperature with 2% (w/v) bovine serum albumin (BSA, Sigma Aldrich; Cat No: A7030) in PBS+/+. […] Each sample was analyzed in duplicate and results were reported as mean±SD.

[2] = target: T2, human Fibronectin 1 (hFn1) (human, UniProt P02751 32-2477); experiment: indirect ELISA, titration of purified 1G5.3 on coated hFn1
T2 construct: Bought from Calbiochem (Cat No 341635)
T2 sequence (P02751 other isoform, or with tags, fused parts or gaps limits assumed): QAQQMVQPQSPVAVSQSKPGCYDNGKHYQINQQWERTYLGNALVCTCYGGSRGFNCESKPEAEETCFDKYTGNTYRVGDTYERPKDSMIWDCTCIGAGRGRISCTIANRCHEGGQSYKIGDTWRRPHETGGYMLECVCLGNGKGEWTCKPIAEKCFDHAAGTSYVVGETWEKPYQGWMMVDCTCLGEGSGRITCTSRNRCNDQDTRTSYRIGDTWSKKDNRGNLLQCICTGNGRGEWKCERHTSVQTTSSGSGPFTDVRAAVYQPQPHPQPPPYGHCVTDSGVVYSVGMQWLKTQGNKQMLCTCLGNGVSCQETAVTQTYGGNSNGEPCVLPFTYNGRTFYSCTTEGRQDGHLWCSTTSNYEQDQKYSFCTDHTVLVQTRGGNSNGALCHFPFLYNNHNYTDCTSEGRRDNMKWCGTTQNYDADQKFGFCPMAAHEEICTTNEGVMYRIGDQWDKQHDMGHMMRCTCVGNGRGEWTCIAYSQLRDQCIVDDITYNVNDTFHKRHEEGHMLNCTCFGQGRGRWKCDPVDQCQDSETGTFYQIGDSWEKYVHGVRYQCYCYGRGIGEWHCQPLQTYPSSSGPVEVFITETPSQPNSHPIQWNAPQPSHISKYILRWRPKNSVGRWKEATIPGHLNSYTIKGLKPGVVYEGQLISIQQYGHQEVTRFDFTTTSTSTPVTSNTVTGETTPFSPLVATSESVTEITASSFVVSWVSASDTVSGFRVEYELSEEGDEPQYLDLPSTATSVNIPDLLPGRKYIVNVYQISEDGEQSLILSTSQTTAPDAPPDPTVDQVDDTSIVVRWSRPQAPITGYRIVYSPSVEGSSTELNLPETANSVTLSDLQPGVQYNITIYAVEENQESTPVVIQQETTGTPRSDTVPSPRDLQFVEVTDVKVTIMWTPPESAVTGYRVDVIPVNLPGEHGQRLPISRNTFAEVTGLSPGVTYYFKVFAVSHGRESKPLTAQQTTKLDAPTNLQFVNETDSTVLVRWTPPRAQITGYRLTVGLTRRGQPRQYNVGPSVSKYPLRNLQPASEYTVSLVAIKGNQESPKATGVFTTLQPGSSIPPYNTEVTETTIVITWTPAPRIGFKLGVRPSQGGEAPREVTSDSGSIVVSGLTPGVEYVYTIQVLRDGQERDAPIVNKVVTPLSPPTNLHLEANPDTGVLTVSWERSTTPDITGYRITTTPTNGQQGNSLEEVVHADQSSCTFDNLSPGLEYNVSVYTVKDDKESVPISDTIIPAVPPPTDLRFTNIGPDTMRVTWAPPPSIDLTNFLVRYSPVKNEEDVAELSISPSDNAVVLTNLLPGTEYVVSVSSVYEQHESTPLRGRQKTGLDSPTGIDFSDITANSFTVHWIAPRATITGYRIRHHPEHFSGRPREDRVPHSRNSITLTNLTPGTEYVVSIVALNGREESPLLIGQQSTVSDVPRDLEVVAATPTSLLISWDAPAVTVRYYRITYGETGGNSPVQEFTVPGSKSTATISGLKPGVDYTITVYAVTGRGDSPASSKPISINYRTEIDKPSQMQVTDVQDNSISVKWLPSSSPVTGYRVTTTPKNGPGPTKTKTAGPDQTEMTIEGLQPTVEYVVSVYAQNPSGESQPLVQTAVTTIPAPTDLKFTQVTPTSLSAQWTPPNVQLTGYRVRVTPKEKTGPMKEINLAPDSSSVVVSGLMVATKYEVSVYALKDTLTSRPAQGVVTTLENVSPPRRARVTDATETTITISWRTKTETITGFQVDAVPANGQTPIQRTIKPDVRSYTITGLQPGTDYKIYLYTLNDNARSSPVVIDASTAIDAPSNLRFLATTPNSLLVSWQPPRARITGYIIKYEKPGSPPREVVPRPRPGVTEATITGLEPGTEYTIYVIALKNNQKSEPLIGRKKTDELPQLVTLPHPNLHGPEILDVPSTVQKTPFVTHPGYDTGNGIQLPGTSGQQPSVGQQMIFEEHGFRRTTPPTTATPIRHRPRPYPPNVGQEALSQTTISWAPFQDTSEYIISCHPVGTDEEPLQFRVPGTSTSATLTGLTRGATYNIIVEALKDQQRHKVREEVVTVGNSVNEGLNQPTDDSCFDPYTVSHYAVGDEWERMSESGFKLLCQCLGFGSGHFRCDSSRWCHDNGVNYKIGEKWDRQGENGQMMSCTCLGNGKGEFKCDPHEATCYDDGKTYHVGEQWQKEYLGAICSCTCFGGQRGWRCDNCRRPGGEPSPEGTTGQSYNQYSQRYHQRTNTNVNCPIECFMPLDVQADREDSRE
Experimental: ELISA plates (Nunc Maxisorb immunoplates Cat. No.: 446612) were coated (0/N at 4° C.) with His-MSF (1-0.5 μg/well), supernatant from CHO-3E6 (50 μl) or hFn1 (1 μg/well), diluted in 15 mM Na carbonate buffer (pH9.6). After coating plates are washed three times with PBS+/+ and 0.05% Tween 20 (washing buffer), then non-specific interactions are blocked by incubation for 2 h at room temperature with 5% (w/v) dry milk in washing buffer. Wells were washed three times with washing buffer, then aliquots of rabbit polyclonal antiserum, supernatants from anti-MSF hybridomas or purified 1G5.3 diluted in washing buffer were added and incubated 1 h at room temperature. Anti-rabbit IgG or anti-mouse IgG labelled with horse-radish peroxidase (Cat No: GENA934 and GENA931 respectively, GE […]) were then added (1/2000 in washing buffer) and incubated 1 h at room temperature. Reaction was developed with 3,3′,5,5′-tetramethylbenzidine (TMB; 1 Step™ ULTRA TMB-ELISA, Thermo Scientific, Rockford, Ill., USA; Cat No: 34019) and stopped with 2N H₂SO₄ before reading absorbance at 450 nm with an automated plate reader (Versamax microplate reader). Baseline was obtained adding anti-MSF antibody on buffer-coated wells.
mAb 1G5.3 was purified from culture supernatant of hybridoma cells by affinity chromatography on Protein-G sepharose. […] The purified antibody was finally analyzed in ELISA. […]

[3] = target: T3, human Migration Stimulating Factor (MSF), natural protein in human cancer tissues (human, UniProt P02751 32-647); experiment: immunohistochemistry on paraffin sections of breast and lung cancer
T3 construct: Natural MSF as stained in formalin-fixed paraffin-embedded sections of breast and lung cancer; also called human MSF
T3 sequence (P02751 other isoform, or with tags, fused parts or gaps limits assumed): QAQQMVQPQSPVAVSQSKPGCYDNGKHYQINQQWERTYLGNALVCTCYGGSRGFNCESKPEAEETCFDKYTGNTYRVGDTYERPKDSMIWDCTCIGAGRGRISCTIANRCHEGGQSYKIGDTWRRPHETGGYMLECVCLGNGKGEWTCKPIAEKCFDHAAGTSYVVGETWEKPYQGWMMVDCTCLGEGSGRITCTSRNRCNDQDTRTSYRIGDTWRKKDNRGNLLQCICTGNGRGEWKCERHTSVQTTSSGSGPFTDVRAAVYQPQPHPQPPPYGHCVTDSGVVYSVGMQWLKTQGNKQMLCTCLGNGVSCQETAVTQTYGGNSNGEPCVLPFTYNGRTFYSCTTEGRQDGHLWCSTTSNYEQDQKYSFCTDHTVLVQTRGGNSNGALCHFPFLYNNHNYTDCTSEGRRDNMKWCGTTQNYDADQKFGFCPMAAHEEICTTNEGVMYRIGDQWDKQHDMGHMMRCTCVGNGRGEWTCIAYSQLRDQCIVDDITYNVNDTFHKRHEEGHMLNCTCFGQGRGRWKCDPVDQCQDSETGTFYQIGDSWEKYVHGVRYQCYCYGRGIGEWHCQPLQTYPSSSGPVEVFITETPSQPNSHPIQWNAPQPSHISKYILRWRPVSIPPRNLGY
Experimental: Paraffin-embedded human tissue sections were cut and kept overnight at 37° C. Sections were dewaxed in Bioclear. Antigen unmasking was performed in a Decloaker Chamber in DIVA Buffer 1× (Biocare Medical Cat No: DV2004) for 3 minutes at 125° C. and 5 minutes at 90° C.
After blocking endogenous peroxidases with Peroxidized-1 (Biocare Medical Cat No: PX968) for 15 minutes, non-specific binding sites were blocked with Background Sniper solution (Biocare Medical Cat No: BS966) for 30 minutes. Human tissue samples were then incubated 1 h with 1G5.3 (1/150-1/300) to identify MSF, or with mouse monoclonal anti-human CD68 (Dako Cat No: M0876, clone PG-M1, 780 μg/ml for 1 h) to identify macrophages. […] Then the reactions were developed with 3,3′-Diaminobenzidine tetrahydrochloride (Biocare Medical Cat No: DB801). Slides were counterstained for 3 min with haematoxylin solution.

[4] = target: T4, recombinant human Migration Stimulating Factor (rhMSF) (human, UniProt P02751 32-647); experiment: immunoaffinity chromatography on a column coupled to 1G5.3
T4 construct: Secreted by the CHO-3E6 clone; also called hrMSF; human recombinant MSF
Experimental: Recombinant human MSF was purified from the conditioned medium of CHO-3E6 by immunoaffinity chromatography (IAC). […] The 1G5.3 column was extensively washed at 5 ml/min with buffer A followed by buffer B (50 mM Tris-HCl, 500 mM NaCl, pH 7.00), and bound rhMSF was eluted with buffer C (3.5 M MgCl2) in a total volume of 4 ml. Homogeneity of the eluted protein was assessed using an analytical Superdex 200 10/300 GL gel filtration column (GE Healthcare), equilibrated and eluted at 0.5 ml/min with buffer B on an AKTA Purifier FPLC system. In addition, aliquots of conditioned medium (input), unbound material (flow through) and eluted protein (eluate) from IAC were resolved on NuPAGE Novex Bis-Tris 10% gels (Thermo Fisher Scientific, Waltham, Mass.) under denaturing and reducing conditions (i.e., in the presence of dithiothreitol). […] Membranes were developed with Immobilon western HRP substrate (Merck Millipore, Darmstadt, Germany) and chemiluminescence recorded on a Chemidoc MP system (Bio-Rad). Throughout the purification process, total protein content was determined using a Bradford protein assay (Bio-Rad) and rhMSF specific titres were measured with an ELISA MSF assay made “in-house” as described below.

[5] = target: T4, recombinant human Migration Stimulating …; experiment: sandwich ELISA, 1G5.3-F(ab)′2 coated, rhMSF standard curve
Experimental: To measure MSF levels in biological fluids a sandwich ELISA has been developed. To this aim ELISA plates were incubated O/N at 4° C. with 250 ng/well of 1G5.3 or 500 ng/well of the 1G5.3-F(ab)′2 fragment diluted in PBS−/−, pH 7.0. After coating, plates were washed three times with 300 μl of washing buffer and then blocked with 5% dry milk for 2 h at 37° C. 100 μl of human plasma [informed consents were obtained] diluted 1/10 in washing buffer containing 2% Bovine Serum Albumin were then added and incubated for 1 h at room temperature. In the same plate a standard curve was generated using purified recombinant human MSF. After washing, plates were incubated with commercial biotinylated polyclonal Sheep IgG recognizing human hFn1 (0.25 μg/ml in washing buffer; R&D Cat No: BAF1918) for 1 h at room temperature. Finally, 100 μl of peroxidase-streptavidin (BioSpa Cat No: SB01-161) diluted 1/10000 in washing buffer were added and incubated 1 h at room temperature. Plates were then washed and incubated with 100 μl/well of the chromogenic substrate TMB before blocking with 2N H2SO4. Absorbance was read at 450 nm as described above. Linear regression was used to calculate MSF concentration in plasma samples from the standard curve made with recombinant MSF.
The 1G5.3-F(ab)′2 fragment was then tested in the sandwich ELISA following the same procedure outlined above. […]

B1: monoclonal antibody 1G5.3 (antibody, mouse IgG1, kappa, V domains shown)
VH: EVKIEESGGGLVQPGGSMKLSCVASGFTFSNDWMNWVRQSPEKGLEWVAEIRMKSDNYATYYAESVKGRFTISRDDSKNSVYLQMNNLRAEDNGIYYCTSWDYWGQGTTLTVSS
VL: DIVMSQSPSSLAVSTGEKVTMNCRSSHYLLNSRTRKNFLSWYQQKPGQSPQLLIYWASTRYSGVPDRFTGSGSGTDFTLTISSVQAEDLAVYYCKQSYNLHTFGGGTKLEIKR
notes: Mouse IgG1, kappa; Used purified (Protein G) or as hybridoma supernatant; also called mAb 1G5.3; 1G5.3 mAb
Question: What does the source list for B1?
Answer: binding result [1]: binds; binding result [2]: no binding (tested: 10 µg/ml to 0.005 ng/ml of 1G5.3); binding result [3]: binds; binding result [4]: binds

B2: 1G5.3-F(ab)′2 fragment (other, not shown: a dimerising Fc or GST)
heavy: B1 VH
light: DIVMSQSPSSLAVSTGEKVTMNCRSSHYLLNSRTRKNFLSWYQQKPGQSPQLLIYWASTRYSGVPDRFTGSGSGTDFTLTISSVQAEDLAVYYCKQSYNLHTFGGGTKLEIKRADAAPTVSIFPPSSEQLTSGGASVVCFLNNFYPKDINVKWKIDGSERQNGVLNSWTDQDSKDSTYSMSSTLTLTKDEYERHNSYTCEATHKTSTSPIVKSFNRNEC
notes: Made from purified 1G5.3 by pepsin digestion; 110 kDa non-reduced; also called anti-human MSF 1G5.3 F(ab)′2 fragment
Question: Does B2 bind [5]?
Answer: Result: binds
